Measurements from patent publication US12458688B2, “Epitopes” (Scancell Limited, priority 2018, dated 2025).
Where no end group is shown, it is not given here. [ ]: non-standard residue; d: D form. hCit = NC(=O)NCCCC[C@H](N)C(=O)O

Molecular target: T1, HLA-DP4 (Homo sapiens, UniProt P04440+P20036)
T1 sequence (P20036 29-260): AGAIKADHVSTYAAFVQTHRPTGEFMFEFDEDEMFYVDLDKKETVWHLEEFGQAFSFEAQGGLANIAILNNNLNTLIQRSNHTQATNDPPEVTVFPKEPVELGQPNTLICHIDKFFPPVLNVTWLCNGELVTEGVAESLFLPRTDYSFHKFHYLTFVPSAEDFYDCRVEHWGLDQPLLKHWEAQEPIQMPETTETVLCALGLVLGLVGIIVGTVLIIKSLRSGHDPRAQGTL
T1 sequence (P04440 30-258): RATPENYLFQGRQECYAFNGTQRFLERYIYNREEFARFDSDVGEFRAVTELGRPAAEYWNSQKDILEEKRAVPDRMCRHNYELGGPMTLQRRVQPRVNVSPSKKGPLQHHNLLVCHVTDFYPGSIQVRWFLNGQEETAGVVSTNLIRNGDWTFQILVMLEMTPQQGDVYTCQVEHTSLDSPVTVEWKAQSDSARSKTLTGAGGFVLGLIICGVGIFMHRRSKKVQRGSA
Test: DP4 competition assay with biotinylated Hep B peptide
Details: inhibition of biotinylated Hep B binding to HLA-DP4, 5 fold excess test peptide, equal amount for unlabelled Hep B
Experimental: 2×T175 gave 2.5×10^7 B16 HHDII/DP4 (B16F1 β2M H2Ab1 dKO A35 HHDII/DP4 H7/2E9/F9 p14) cells. This was enough for 5 preps using the following protocol with Mem-PER™ Plus Membrane Protein Extraction Kit (thermo-scientific cat #89842).
5×10^6 cells were resuspended in the growth media by scraping the cells off the surface of the plate with a cell scraper and then centrifuged at 300 g for 5 mins. The cell pellet was washed with 3 ml of Cell Wash Solution and centrifuged at 300 g for 5 mins. The supernatant was removed and discarded. The cells were resuspended in 1.5 ml of Cell Wash Solution and transfer to a 2 ml centrifuge tube and centrifuged at 300 g for 5 mins. The supernatant was discarded. 0.75 ml of permeabilization buffer was added to the cell pellet and vortexed briefly to obtain a homogeneous cell suspension and incubated for 10 mins at 4° C. with constant mixing. The permeabilized cells were centrifuge for 15 mins at 16,000g before carefully removing the supernatant containing cytosolic proteins and transfering to a new tube. 0.5 ml of solubilization buffer was added to the pellet and resuspend prior to incubating at 4° C. for 30 minutes with constant mixing prior to centrifugation at 16,000g for 15 mins at 4° C. The supernatant containing solubilized membrane and membrane-associated proteins was transfered to a new tube. Aliquots were frozen at −80° C. for future use. 12.5 μl Halt™ Protease and Phosphatase Inhibitor Cocktail, EDTA-free (100X) thermo-scientific (Catalog number 78445) was added prior to freezing.
High binding plates were coated with streptavidin (Sigma S4762 at 1 mg/ml) 1/500 in PBS and incubated overnight at 4° C. The plates were blocked with 1% BSA in PBS for 4 hrs at room temp and washed 3×PBS/0.5% Tweenx. 450 μl of cell prep lysate (B16F1 B16 HHDII/DP4 H7/2E9/F9) was mixed with 50 μg test peptide (see below) or 10 μg of unlabelled Hep B peptide for 30 mins. 10 μg biotinylated Hep B peptide was added & incubated for 4 hrs at 37° C.:
Lysate/peptide mix was added to the plates at 100 μl/well and incubated for 4 hrs at room temperature. Plates were washed 3× with PBS/0.5% Tween. 100 μl per well of Leinco anti-Human HLA-DP4 clone B7/21 #H260 1 mg/ml at 1/500 dilution in 1% BSA/PBS was added and incubated for 1 hr at room temperature prior to washing 3× PBS/0.5% Tween. Goat anti-mouse lgG3-HRP at 0.5 mg/ml 1/500 100 μl per well (Invitrogen #M32607) diluted in 1% BSA/PBS) was added for 1 hr at room temperature prior to washing and adding 150 μl of TMB substrate to each well. The reaction was stopped with 50 μl of 2N H2SO4 and plates read plate at 450 nm.
To ensure that the biotinylation of Hep B had not interfered with its binding, HLA-DP4 was incubated with equal amounts of biotinylated and unlabelled Hep B peptide. Unlabelled peptide competed equally reducing binding by 47% (FIG. 53b).
The biotinylated HepB peptide was then incubated with a 5 fold excess of the unlabelled homocitrulline peptides. All peptides inhibited the binding of biotinylated Hep B to HLA-DP4 but to varying levels (FIG. 53c-e).

Substance	% inhibition [%]	% inhibition (listed as Cyk8 281-399 Hcit) [%]
NYID-Hcit-VRFLEQQN-Hcit-ILLAEL (NYID[hCit]VRFLEQQN[hCit]ILLAEL) [Vimentin 116-135 Hcit]	44	–
EIN-hcit-RTEMENEFVLI-hcit-hcit-DVDE (EIN[hCit]RTEMENEFVLI[hCit][hCit]DVDE) [Cyk8 182-202 Hcit]	61	–
LEQQN-hcit-MLET-hcit-WSLLQQQ-hcit-T (LEQQN[hCit]MLET[hCit]WSLLQQQ[hCit]T) [Cyk8 112-131 Hcit]	64	–
LREYQELMNV-hcit-LALDIEI (LREYQELMNV[hCit]LALDIEI) [Cyk8 371-388 Hcit]	72	–
IGGVILFHETLYQ-hcit-ADDGRP (IGGVILFHETLYQ[hCit]ADDGRP) [Aldolase A 74-93 Hcit]	69	–
KFASFID-Hcit-VRFLEQQN-Hcit-MLE (KFASFID[hCit]VRFLEQQN[hCit]MLE) [Cyk8 101-120 Hcit]	71	–
HACTQ-hcit-FSH(N)EEIAMATVTA (HACTQ[hCit]FSHNEEIAMATVTA; not fully specified; printed as HACTQ-hcit-FSH(N)EEIAMATVTA) [Aldolase A 238-256 Hcit]	73	–
hcit-DGADFA-hcit-WRCVL-hcit-IGEH ([hCit]DGADFA[hCit]WRCVL[hCit]IGEH) [Aldolase A 140-157 Hcit]	76	–
hcit-LALDIEIATYR-hcit-LLEGEE ([hCit]LALDIEIATYR[hCit]LLEGEE) [Cyk8 381-399 Hcit]	–	60
